According to PMC10779317, “Crosstalk between G-Quadruplexes and Dnmt3a-Mediated Methylation of the c-MYC Oncogene Promoter”:

Experiments:
Dnmt3a-CD = Dnmt3a-CD (mouse (murine), UniProt O88508 630-908); assay: fluorescence polarization; 100 uM AdoHcy; 20 mM HEPES-NaOH pH 7.5, 100 mM KCl, 1 mM EDTA, 1 mM DTT, 100 uM AdoHcy, 10 nM DNA (60 nM for PWWP); FP temperature not stated; methylation competition at 37 C; details: protein: recombinant, tags: N-terminal 6xHis, chain copies: 4
M.SssI = M.SssI (UniProt P15840 1-386); assay: as above; details: protein: recombinant; label: 5'-FAM; intramolecular parallel G4
Dnmt3a PWWP domain = Dnmt3a PWWP domain (UniProt O88508 288-346); assay: fluorescence polarization; 100 uM AdoHcy; 60 nM DNA; 20 mM HEPES-NaOH pH 7.5, 100 mM KCl, 1 mM EDTA, 1 mM DTT, 100 uM AdoHcy, 10 nM DNA (60 nM for PWWP); FP temperature not stated; methylation competition at 37 C; details: protein: recombinant; label: 5'-FAM; intramolecular parallel G4

Chain of M.SssI (P15840 whole entry, the tested form may be a part): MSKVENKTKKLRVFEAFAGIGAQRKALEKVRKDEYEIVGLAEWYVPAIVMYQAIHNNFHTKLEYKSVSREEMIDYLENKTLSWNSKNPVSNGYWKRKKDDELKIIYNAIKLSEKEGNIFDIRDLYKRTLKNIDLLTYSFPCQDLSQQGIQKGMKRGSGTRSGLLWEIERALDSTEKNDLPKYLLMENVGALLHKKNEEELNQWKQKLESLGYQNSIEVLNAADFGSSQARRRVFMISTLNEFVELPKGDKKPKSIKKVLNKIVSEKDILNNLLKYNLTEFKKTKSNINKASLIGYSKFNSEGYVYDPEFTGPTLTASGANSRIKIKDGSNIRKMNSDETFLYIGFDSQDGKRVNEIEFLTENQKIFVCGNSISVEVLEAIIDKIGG

Row | Binder | Kd (Dnmt3a-CD; label: 5'-FAM on both strands, blunt) [nM] | Kd (Dnmt3a-CD; label: 5'-FAM, intramolecular parallel G4) [nM] | Kd (M.SssI) [nM] | Kd (Dnmt3a PWWP domain) [nM]
1 | 30Uf/30Df (dsDNA) DNA 1: CTGAATACTACTTGCGCTCTCTAACCTGAT DNA 2: ATCAGGTTAGAGAGCGCAAGTAGTATTCAG | 220 ± 30 | – | – | –
2 | TGGGGAGGGTGGGGAGGGTGGGGAAGG (structured_DNA) [27fG4] | – | 120 ± 30 | 1200 ± 600 | 900 ± 200
